Legend:
[1] = test system: cardiomyocytes (let-7 OE CMs vs. EV control); assay: SEAHORSE XF96 metabolic flux assay (MITOSTRESS, palmitate, glucose stress); assay type: cell-based, human; conditions: compared to EV control; for OCR changes after FCCP treatment (maximal respiration capacity): after oligomycin
Text: To understand the molecular signaling components of maturation program that are modulated in let-7g OE CMs, the inventors probed the differential expression data further using density plots for each of the 12 pathways previously identified (FIG. 4F). […] The inverse relationship between FA metabolism and PI3/AKT/insulin signaling in let-7g OE CMs was similar to that observed in the 1 yr old CMs and consistent with the metabolic switch seen in maturing CMs in in vivo studies. The inventors validated by qPCR in the let-7 OE CMs the down-regulation of candidate let-7 targets in the insulin pathway and up-regulation of candidates of FA metabolism (FIG. 5B). To test the functional relevance for these gene expression changes, the inventors carried out metabolic analysis of let-7 OE CMs vs. EV control using the SEA HORSE™ metabolic flux assay. First, mitochondrial maximal respiration capacity was analyzed by measuring the oxygen consumption rate (OCR), a metabolic parameter representing the mitochondrial respiration levels. To record the maximum activity of the electron transport chain uncoupled from ATP synthesis, mitochondrial ATP synthase was inhibited with oligomycin, then maximum mitochondrial respiration was measured after addition of the proton gradient discharger, carbonyl cyanide 4-(trifluoromethoxy)phenylhydrazone (FCCP). […] Increased mitochondrial respiration can be due to increased mitochondrial copy number or increased mitochondrial activity, for example due to higher efficiency of glucose or fatty acid usage as energy substrates. […] To investigate whether the let-7 OE CMs also utilize glucose more efficiently, the extracellular acidification rate (ECAR) was determined. […] These experiments clearly indicate that let-7 OE specifically increases the efficiency of palmitate usage, which is an important sign of maturation.
The SEAHORSE™ XF96 extracellular flux analyzer was used to assess mitochondrial function. The plates were pre-treated with 0.1% Gelatin. At around 20 days after differentiation, the cardiomyocytes (both empty vector control and let-7 OE) were seeded onto the plates with a density of 30,000 cells per XF96 well (2,500/mm^2) to ensure about 90% surface coverage at the time of experiment. The SEAHORSE™ assays were carried out 3 days after the seeding onto the XF96 well plate. […] The OCR values were further normalized to the number of cells present in each well, quantified by the Hoechst staining (Hoechst 33342; SIGMA-ALDRICH™) as measured using fluorescence at 355 nm excitation and 460 nm emission. […] Cellular capacity to utilize Palmitate as an energy source was calculated as the OCR reduction after ETO addition. […]

RUES2-CMs = assay: Immunocytochemistry (α-actinin staining) and morphological analysis of lentivirally transduced cardiomyocytes; assay type: cell-based, human; conditions: for cell perimeter / cell area: let-7 OE CMs at roughly day 30; for cell perimeter: EV control 108±15 μm, n=50 cells per condition; for cell perimeter / cell area / sarcomere length: P<0.001; for cell area: EV control 380±70 μm^2; for Circularity index (4πArea/(perimeter)^2) / sarcomere length: let-7 OE CMs; for Circularity index (4πArea/(perimeter)^2): EV control 0.41±0.02; for sarcomere length: EV control 1.65±0.02 μm
Procedure: Undifferentiated human embryonic stem cell (hESCs) lines H7 (NIHhESCC-10-0061) and RUES2 (NIHhESC-09-0013) were expanded using mouse embryonic fibroblast-conditioned medium with 5 ng/ml basic fibroblast growth factor. H7-CMs were derived using previously reported protocols^1-3. RUES2-CMs were used for all functional analyses and these were derived using a cardiac progenitor cell differentiation protocol^4 derived from previously reported monolayer directed differentiation methods^1, 5, 6. In brief, this involves the induction of a monolayer of hESCs with activin A and bone morphogenetic protein-4 (BMP4) under serum- and insulin-free conditions. During the early stages of differentiation, the cells were also exposed to the Wnt agonist CHIR 99021 followed by the Wnt antagonist Xav939. From 7 days of in vitro differentiation, the cells were fed every alternate day with serum-free RPMI-B27 plus insulin media. After 20 days of in vitro differentiation, the cells were trypsinized and replated. Only those cell preparations that had at least 70% cardiac troponin T-positive CMs (as observed by flow cytometry) were used for further experiments. For experiments where the H7-CMs were cultured for around a year, the cells were replated after the 3rd and 11th month from day 0. At the 11th month, FACS analysis for cTnT was conducted and the CMs were split into three parts and were cultured as three independent replicates for another 1.5 months after which they were harvested for RNA extraction. IMR90iPSC-CMs cultured for 1 yr were replated at day 20 and split every 2 months for 12 months before harvesting for RNA extraction. To generate engineered cardiac tissue, the inventors used the procedure reported by Tulloch et al.^2 In brief, day 20 CMs are suspended in the collagen gel at 10,000/μl, and rod-shaped constructs of 25 μl (1 mm radius×8 mm length) were generated by casting in a preformed mold and warming to 37° C. The ends of the mold contain Velcro-like micro-fiber loops, and these become impregnated with gel+cell mixture. These tabs allow the constructs to be maintained under static tension, which facilitates alignment and differentiation of the CMs. The constructs were maintained in the serum-free RPMI-B27 plus glutamine media up to 2 weeks. For let-7 overexpression analysis, the CMs were transduced with the virus carrying the pLKO-let-7 or empty vector control pLKO plasmid at day 12 of the directed differentiation protocol. After overnight transduction the virus was removed, cells were rinsed with PBS and new media added. The samples were analyzed at day 30 from the initiation of differentiation.
All morphological analyses were carried out using at least 50 cells. Cells replated in chamber slides were fixed in 4% paraformaldehyde for 15 minutes followed by PBS wash. The fixed cells were blocked for an hour with 1.5% normal goat serum and incubated O/N with mouse alpha actinin (sigma) primary antibody. The primary antibody was rinsed with PBS and incubated with secondary antibody (Alexa fluor 488 [Goat anti mouse]) for an hour followed by nuclear staining using DAPI. For cell area and perimeter measurements, images were acquired and processed using ZEISS™ AXIO fluorescent microscope and AXIOVISION™ software. For sarcomere length, images were acquired and processed using LEICA™ TCS-SPE confocal microscope and LEICA™ software. These confocal images were used to select 1-2 myofibrils per cell with at least ten continuous, well-recognized alpha-actinin bands and divided the length value by the number of sarcomeres. The images were further analyzed using IMAGE J™ software.
For lenti-let-7 OE constructs, Pri-miR-let-7i and pri-miR-let-7g sequence was amplified from H7 genomic DNA using forward primer for let-7i-TCCGCGTGGTCCCGT; reverse primer for let-7i-ATTGTCCTCCGCGGCGC and forward primer for let-7g-AGAGTTCCTCCAGCGCTCC; reverse primer for let-7g-CCCCACTTGGCAGCTGGC, resulting in 153 bp and 154 bp products, respectively. […]

Molecule	OCR changes after FCCP treatment (maximal respiration capacity) [1]	OCR increase in response to palmitate (fatty acid stress test) [1]	cell perimeter (RUES2-CMs)	cell area (RUES2-CMs)	Circularity index (4πArea/(perimeter)^2) (RUES2-CMs)	sarcomere length (RUES2-CMs)
let-7g: human let-7 family miRNA, SEQ ID NO: 9, overexpressed from pLKO lentiviral pri-miR-let-7g construct (nucleic acid, listed as Homo sapiens) AGGCUGAGGUAGUAGUUUGUACAGUUUGAGGGUCUAUGAUACCACCCGGUACAGGAGAUAACUGUACAGGCCACUGCCUUGCCA	significantly greater	greater	302±3 μm	980±95 μm^2	0.12±0.02	1.69±0.01 μm
let-7i: human let-7 family miRNA, SEQ ID NO: 10, overexpressed from pLKO lentiviral pri-miR-let-7i construct (nucleic acid, listed as Homo sapiens) CUGGCUGAGGUAGUAGUUUGUGCUGUUGGUCGGGUUGUGACAUUGCCCGCUGUGGAGAUAACUGCGCAAGCUACUGCCUUGCUA	significantly greater	greater	300±7.4 μm	1110±101 μm^2	0.15±0.04	1.70±0.01 μm

Source: US9624471B2, “Methods for maturing cardiomyocytes and uses thereof” (UNIVERSITY OF WASHINGTON THROUGH ITS CENTER FOR …, priority 2013, dated 2017)
